In CN107081136A:

What was measured:
[1] = biological target: Myc-GST融合蛋白 (Myc-GST fusion protein); test: ELISA, Myc-GST coated at 5 μg/mL, HRP anti-His secondary antibody, heat-stability test at 70℃
[2] = biological target: Myc-GST融合蛋白 (Myc-GST fusion protein); test: ELISA, Myc-GST coated at 5 μg/mL, HRP anti-His secondary antibody, heat-stability test at 90℃
[3] = biological target: Myc-GST融合蛋白 (Myc-GST fusion protein); test: ELISA, Myc-GST coated at 5 μg/mL, HRP anti-His secondary antibody, heat-stability test at 80℃

OD450 [1]: 1.5 OD450
OD450 [2]: 1.2 OD450
OD450 [3]: 1.3 OD450
B1: 抗c-Myc标签单域重链抗体 (anti-c-Myc tag single-domain heavy-chain antibody) (VHH, not shown: small tags and cut ends)
VHH: QLQLVESGGGLVQPGGSLRLSCTVSGFPLDNYAIGWLRQAPGKEREGVACISNRGGRTDYVDSVRGRFTISRDNAKKTVYLQMHNLKPEDTGIYYCVAPEMFRPCKLSSEDVRHWGHGTQVTVSS
